Measurements taken from US7244430 (CRUCELL HOLLAND B V, dated 2007).

Key:
[1] = molecular target: T1, West Nile virus strain USA99b (strain 385-99) (West Nile virus strain 385-99 (USA99b)); assay: phage ELISA, coated whole inactivated WNV
T1 construct: mature; also called WNV; WN virus

[2] = molecular target: T2, recombinantly expressed purified soluble WNV E protein (strain 382-99) (West Nile virus strain 382-99, UniProt Q9Q6P4 291-696); assay: phage ELISA, coated recombinant soluble WNV E protein
T2 construct: also called recombinant WNV-E protein; truncated E protein; not shown: Myc tag and His tag
T2 sequence: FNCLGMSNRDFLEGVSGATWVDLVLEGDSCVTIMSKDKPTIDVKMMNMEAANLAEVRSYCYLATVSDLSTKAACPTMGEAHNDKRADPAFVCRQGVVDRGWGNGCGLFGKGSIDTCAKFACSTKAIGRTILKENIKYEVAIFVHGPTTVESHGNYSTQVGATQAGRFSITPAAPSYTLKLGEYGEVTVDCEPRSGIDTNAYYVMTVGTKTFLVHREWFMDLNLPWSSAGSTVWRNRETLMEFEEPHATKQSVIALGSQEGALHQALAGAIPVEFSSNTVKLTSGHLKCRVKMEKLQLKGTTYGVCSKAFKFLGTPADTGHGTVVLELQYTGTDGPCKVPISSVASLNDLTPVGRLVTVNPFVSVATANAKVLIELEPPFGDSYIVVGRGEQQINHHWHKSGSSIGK

[3] = molecular target: T3, mutant WNV-like particles K307E (West Nile virus strain 382-99, UniProt Q9Q6P4 291-791; Q9Q6P4 216-290); assay: ELISA on mutant VLP
T3 construct: also called mutant K307E

[4] = molecular target: T4, mutant WNV-like particles A365V (West Nile virus strain 382-99, UniProt Q9Q6P4 291-791; Q9Q6P4 216-290); assay: ELISA on mutant VLP, normalized to wild-type VLP
T4 construct: also called mutant A365V

[5] = molecular target: T2, recombinantly expressed purified …; assay: phage ELISA, coated recombinant soluble WNV E protein; remark: listed apart in the source
[6] = molecular target: T5, WNV-like particles (wild-type VLP, strain 382-99 M and E proteins) (West Nile virus strain 382-99, UniProt Q9Q6P4 291-791; Q9Q6P4 216-290); assay: titration of purified IgM on VLPs
T5 construct: also called West Nile virus-like particles; WT

[7] = molecular target: T6, mutant WNV-like particles T332K (West Nile virus strain 382-99, UniProt Q9Q6P4 291-791; Q9Q6P4 216-290); assay: ELISA on mutant VLP, normalized to wild-type VLP
T6 construct: also called mutant T332K

B1: SC04-283 (scFv)
scFv: EVQLVQSGAEVKKSGESLKISCKGSGYTFNTYWIGWVRQMPGKGLEWMGIIYPGDSDTIYSPSFQGQVTISADKSISTAYLQWSSLKASDSAMYYCARLTFRRGYSGSDSFLPPGDFDYWGQGTLVTVSSGTGGSGGTGSGTGGSTDIQMTQSPSTLSASVGDRVTITCRASQSISSWLAWYQQKPGKAPNLLIYAASSLQSGVPSRFSGSGSGTDFTLTISSLQPDDSATYYCQQYNTYPLTFGGGTKVEIKR
- OD 492 nm [1]: 1.21 OD 492 nm
- OD 492 nm [2]: 0.074 OD 492 nm

B2: CR5080 (antibody, V domains shown)
VH: QVTLKESGPTLVKPTQTLTLTCTFSGFSLSTSGVGVGWIRQPPGKALEWLAVIYWNDDKLYRPSLKSRLTITKDTSKNQVVLTMTKMDPVDTATYYCAHRHRYYDISGYYRLFSDAFDIWGQGTMVTVSS
VL: QSVLTQPPSVSGAPGQRVTISCTGSSSNIGAGYDVHWYQQLPGTAPKLLIYGNSNRPSGVPDRFSGSKSGTSASLAITGLQAEDEADYYCQSYDSSLSGWAFGGGTKLTVLG
- binding result [3]: no binding
- % of wild-type binding [4]: ~37%

B3: SC04-271 (scFv)
scFv: EVQLVETGAEVKKPGESLRISCKGSGYTFNNYWIGWVRQMPGKGLEWMGIIYPGDSDTRYSPSVQGHVTISADKSINTAYLQWSSLKASDTAVYYCARRPGYDYGFYYFDYWGQGTLVTVSSGTGGSGGTGSGTGGSTQSALTQPRSVSGSPGQSVTISCTGTSSDVGGYNYVSWYQHHPGKAPKLMIYDVSNRPLGVSNRFSGSKSGNTASLTISGLQAEDEADYYCSSYTSSSTYVFGTGTHLTVLS
- OD 492 nm [1]: 0.984 OD 492 nm
- OD 492 nm [2]: 0.608 OD 492 nm

B4: SC04-353 (scFv)
scFv: EVQLVQSGGGVVQPGRSLRLSCAASGFTFSNYAMHWVRQAPGKGLEWVAVISYDGGNKYYADSVKGRFTMSRDNSKNTLYLQMNSLRAEDTAVYYCARDFWSGYSMVDSYYYYMDVWGKGTTVTVSSGTGGSGGTGSGTGGSTETTLTQSPGTLSLSPGERATLSCRASQSVSNTFLAWYQQKPGQAPRLLIYGASSRATGIPDRFSGSGSGTDFTLTISRLEPEDFAAYYCQQYGSSLTFGPGTKVDIKR
- OD 492 nm [2]: 0.099 OD 492 nm
- binding result [5]: no binding

B5: CRM4374 (antibody)
heavy: QITLKESGPTLVKPTQTLTLTCTFSGFSLSTSGVGVGWIRQPPGKALEWLAVIYWNDDKLYRPSLKSRLTITKDTSKNQVVLTMTKMDPVDTATYYCAHRHRYYDISGYYRLFSDAFDIWGQGTMVTVSSASAPTLFPLVSCENSPSDTSSVAVGCLAQDFLPDSITFSWKYKNNSDISSTRGFPSVLRGGKYAATSQVLLPSKDVMQGTDEHVVCKVQHPNGNKEKNVPLPVIAELPPKVSVFVPPRDGFFGNPRKSKLICQATGFSPRQIQVSWLREGKQVGSGVTTDQVQAEAKESGPTTYKVTSTLTIKESDWLSQSMFTCRVDHRGLTFQQNASSMCVPDQDTAIRVFAIPPSFASIFLTKSTKLTCLVTDLTTYDSVTISWTRQNGEAVKTHTNISESHPNATFSAVGEASICEDDWNSGERFTCTVTHTDLPSPLKQTISRPKGVALHRPDVYLLPPAREQLNLRESATITCLVTGFSPADVFVQWMQRGQPLSPEKYVTSAPMPEPQAPGRYFAHSILTVSEEEWNTGETYTCVVAHEALPNRVTERTVDKSTGKPTLYNVSLVMSDTAGTCY
light: QSVLTQPPSVSGAPGQRVTISCTGSSSNIGAGYDVHWYQQLPGTAPKLLIYGNSNRPSGVPDRFSGSKSGTSASLAITGLQAEDEADYYCQSYDSSLSGSVFGGGTKLTVLGQPKAAPSVTLFPPSSEELQANKATLVCLISDFYPGAVTVAWKADSSPVKAGVETTTPSKQSNNKYAASSYLSLTPEQWKSHRSYSCQVTHEGSTVEKTVAPTECS
notes: also called IgM form of CR4374
- binding result [6]: binds

B6: CR4374 (antibody)
heavy: not shown
light: QSVLTQPPSVSGAPGQRVTISCTGSSSNIGAGYDVHWYQQLPGTAPKLLIYGNSNRPSGVPDRFSGSKSGTSASLAITGLQAEDEADYYCQSYDSSLSGSVFGGGTKLTVLGQPKAAPSVTLFPPSSEELQANKATLVCLISDFYPGAVTVAWKADSSPVKAGVETTTPSKQSNNKYAASSYLSLTPEQWKSHRSYSCQVTHEGSTVEKTVAPTECS
notes: also called CR374
- binding result [3]: no binding
- % of wild-type binding [7]: ~75%

B7: SC04-311 (scFv)
scFv: EVQLVQSGGGVVQPGRSLRLSCVASGFTFSKDAMHWVRQAPGKGLEWVAVISYDGSDKHYADSVKGRVTISRDNSRKTLYLRMDSLRAEDTALYYCARGYNSGHYFDYWGQGTLITVSSGTGGSGGTGSGTGGSTQSVLTQPPSVSAAPGQKVTISCSGTSSNIGDNYVSWYQHLPGTAPKLLIYDNNKRPSGIPDRFSGSKSGTSATLGVTGLQTGDEADYYCGTWDSSLTAVVFGGGTKLTVLG
- OD 492 nm [1]: 1.04 OD 492 nm
- OD 492 nm [2]: 1.54 OD 492 nm

B8: SC04-374 (scFv)
scFv: QVTLKESGPTLVKPTQTLTLTCTFSGFSLSTSGVGVGWIRQPPGKALEWLAVIYWNDDKLYRPSLKSRLTITKDTSKNQVVLTMTKMDPVDTATYYCAHRHRYYDISGYYRLFSDAFDIWGQGTMVTVSSGTGGSGGTGSGTGGSTQSVVTQPPSVSGAPGQRVTISCTGSSSNIGAGYDVHWYQQLPGTAPKLLIYGNSNRPSGVPDRFSGSKSGTSASLAITGLQAEDEADYYCQSYDSSLSGSVFGGGTKLTVLG
- OD 492 nm [2]: 1.36 OD 492 nm

B9: SC04-325 (scFv)
scFv: QMQLVQSGAEVKKPGSSVKVSCKASGDTFSSYAISWVRQAPGQGLEWMGGIFGTASYAQKFQGRVTITADESTSTAYMELSSLRSEDTAVYYCARGGMATTPGLDYWGQGTLVTVSSGTGGSGGTGSGTGGSTDIQLTQSPDSLAVSLGERATINCKSSQSVLYSSNNKNYLAWYQQKPGQPPKLLIYWASTRESGVPDRFSGSGSGTDFTLTISSLQAEDVAVYYCQQYYSTPLTFGQGTKVEIKR
- OD 492 nm [2]: 1.4 OD 492 nm

B10: SC04-289 (scFv)
scFv: QMQLVQSGAEVKKPGESLRISCKGSGYSFTSNWITWVRQMPGKGLEWMGRIDPSDSYTNYSPSFQGHVTISADKSISTAYLQWSSLKASDTAMYYCARDVVGVGASDYYYYMDVWGKGTTVTVSSGTGGSGGTGSGTGGSTEIVLTQSPGTLSLSPGETATLSCRTSQSVSSSYLGWYQQKPGQAPRLLIYGASIRATGIPARFSGSGSGTEFTLTIDSLQSEDFAVYYCQQYNNWPPITFGQGTRLEIKR
- OD 492 nm [1]: 0.759 OD 492 nm
- OD 492 nm [2]: 1.39 OD 492 nm

B11: SC04-299 (scFv)
scFv: EVQLVETGGGVVQPGRSLRLSCAASGFTFSGYAMHWVRQAPGKGLDWVAVISYDGSEKYSADSVKGRFTISRDNSKNTLYLQMNSLRAEDTAVYYCAKESGGPIWYKYYGVDVWGQGTTVTVSSGTGGSGGTGSGTGGSTSYVLTQPPSLSAAPRQRVTISCSGSSSNIGNYGVNWYQQLPGKAPKLLIYYDDLLPSGVSDRFSGSKSGTSASLAISGLQSEDEGDYYCAAWDDTLSAWVFGGGTKLTVLG
- OD 492 nm [1]: 1.07 OD 492 nm

B12: SC04-361 (scFv)
scFv: EVQLVQSGAEVKKPGESLKISCKASGFSFSTYWIGWVRQMPGKGLEWMGIIYPADSDTRYSPSFQGQVTISADKSISTAYLQWSSLKASDTAMYYCARLRGPYYDFWNGYRETHDAFNVWGQGTMVTVSSGTGGSGGTGSGTGGSTDVVMTQSPDSLAVSLGERATINCKSSQNILDNSDNKNFLAWYQQKPGQPPKLLIYWASARESGVPDRFSGSGSGTDFTLTISSLQAEDVALYYCQQYYNTPITFGQGTRLEIKR
- OD 492 nm [2]: 0.076 OD 492 nm
- binding result [5]: no binding
